Numbered stars: 1 amine (or outer) side, 2 acyl side, 3 side chain; on linkers, the order of the positions; unused ones are H or OH. Square brackets hold non-standard residues; d marks the D form. Ends that are not written are not given here. X1 = (S)‑3‑(2-carboxy-2-(methylamino)ethyl)benzoic acid, CN([C@@H](Cc1cccc(C(=O)[*:3])c1)C(=O)[*:2])[*:1]; Trp(7-aza) = N[C@@H](Cc1c[nH]c2ncccc12)C(=O)O; Ala(4-THP) = N[C@@H](CC1CCOCC1)C(=O)O; NMe4Pal = CN[C@@H](Cc1ccncc1)C(=O)O; NMeF = CN[C@@H](Cc1ccccc1)C(=O)O; Tic = O=C(O)[C@@H]1Cc2ccccc2CN1; Cit = NC(=O)NCCC[C@H](N)C(=O)O; NMeV = CN[C@H](C(=O)O)C(C)C
Assays:
Frizzled-2 (FZD2) = biological target: T1, Frizzled-2 (FZD2) (Mus musculus, UniProt Q9JIP6); test: Evaluation of binding activity to Frizzled using ELISA (Frizzled-2); conditions: peptide complex (linker structure number 9 added to the peptide) diluted to 10 nM; absorbance at 450 nm minus wells with no added peptide complex
T1 construct: purchased R&D systems 1307-FZ
Method: (§1) In order to evaluate the binding activity of the synthesized peptide complexes (peptide complexes having the linker structure number 9 added to peptide sequence numbers 1 to 78) to Frizzled, a binding activity evaluation using the ELISA method was conducted using the steps described below.
(§2) Biotin-labeled polyclonal anti-human IgG (eBioscience; 13-4998) was added to a streptavidin-coated 96-well plate (Thermo; 436014) in an amount of 200 µg per well, and left to stand for 30 minutes.
(§3) Following washing three times with PBS-T, 3 pmol of Fc-tagged Frizzled-2 (R&D systems; 1307-FZ), Frizzled-7 (R&D systems; 6178-FZ), or Frizzled-8 (R&D systems; 6129-FZ) was added per well and left to stand for 30 minutes to immobilize each Frizzled on the plate.
(§4) Following washing three times with PBS-T, the peptide complex diluted to 10 nM was added to Frizzled-2 and Frizzled-7, the peptide complex diluted to 500 nM was added to Frizzled-8, and the plate was left to stand for one hour.
(§5) Following washing three times with PBS-T, Anti-HA-tag mAb-HRP-Direct T (MBL; M180-7) that had been diluted 5000-fold with PBS-T was added and left to stand for 30 minutes.
(§6) Following washing three times with PBS-T, SureBlue TMB I-Component Microwell Peroxidase Substrate (SeraCare; 5120-0077) was added and left to stand for 10 minutes, and the reaction was then halted by adding an equal volume of TMB Stop Solution (SeraCare; 5150-0021).
(§7) Using an Infinite M Nano* (TECAN), the absorbance was measured at 450 nm. The binding signal for each peptide complex was calculated by subtracting the absorbance in those wells containing no added peptide complex from the absorbance in those wells containing the added peptide.

Frizzled-7 (FZD7) = biological target: T2, Frizzled-7 (FZD7) (Homo sapiens, UniProt O75084); test: Evaluation of binding activity to Frizzled using ELISA (Frizzled-7); conditions: peptide complex (linker structure number 9 added to the peptide) diluted to 10 nM; absorbance at 450 nm minus wells with no added peptide complex
T2 construct: purchased R&D systems 6178-FZ
Method: as §1, §2, §3, §4, §5, §6, §7

Frizzled-8 (FZD8) = biological target: T3, Frizzled-8 (FZD8) (Homo sapiens, UniProt Q9H461); test: Evaluation of binding activity to Frizzled using ELISA (Frizzled-8); conditions: peptide complex (linker structure number 9 added to the peptide) diluted to 500 nM; absorbance at 450 nm minus wells with no added peptide complex
T3 construct: purchased R&D systems 6129-FZ
T3 sequence (Q9H461 28-158 limits assumed): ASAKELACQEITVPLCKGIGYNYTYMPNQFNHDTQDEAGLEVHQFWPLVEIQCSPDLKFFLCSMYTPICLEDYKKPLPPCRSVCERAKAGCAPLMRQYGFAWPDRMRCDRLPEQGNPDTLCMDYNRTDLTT
Method: as §1, §2, §3, §4, §5, §6, §7

[1] = system: TCF/LEF Reporter-HEK 293 cells; test: Evaluation of Wnt signal activation capability, TCF/LEF reporter assay; assay type: cell-based; conditions: dimer structure numbers 1 to 43; classes 2-A to 2-E; tested at 0.1/1/10/100/1,000 nM depending on the dimer
Method: In order to evaluate the Wnt signal activation capability of each of the synthesized peptide complexes (dime structure numbers 1 to 67), transcriptional activity was evaluated using a TCF/LEF reporter.
TCF/LEF Reporter-HEK 293 cells (BPS Bioscience) were cultured in EMEM (Fuji FILM) containing 10% FBS (Thermo Fisher Scientific), 50 µg/mL Gentamicin (Nacalai Tesque), and 400 µg/mL Geneticin (Thermo Fisher Scientific).
The cells were detached using TrypLE (Thermo Fisher Scientific) and then suspended in EMEM containing 10% FBS, 50 µg/mL Gentamicin, and 10 mM LiCl (Sigma).
The cells were seeded into a white 96-well plate (Thermo Fisher Scientific) for cell adhesion and luminescence detection at a rate of 35,000 cells per well, and were then cultured overnight.
Subsequently, Recombinant Human Wnt-3a Protein (R&D systems) or a peptide complex was added in the presence of 1 nM Recombinant Human R-spondin 1 (R&D systems), and stimulation was conducted for 5 hours and 30 minutes in a CO2 incubator at 37°C.
The ONE-Glo Luciferase Assay System (Peomega) was added and shaken for 4 minutes, and the resulting luminescent signals were detected using a SpectraMax Paradigm multimode microplate reader (Molecular Devices).
The thus obtained signals were analyzed using a GraphPad Prism, and the percentage activity was calculated with the maximum value of the signal value induced by Wnt3a deemed to be 100% and the signal value with no stimulus deemed to be 0%. Evaluations were conducted with the Wnt concentration within a range from […] to determine the 100% value.
For each dimer structure number, tests were conducted using the peptide complex addition concentrations described below. • a) For dimer structure number 1, 1 nM, 10 nM, 100 nM, and 1,000 nM • b) For dimer structure numbers 2 to 4, 1 nM, 10 nM, and 100 nM • c) For dimer structure numbers 5 to 14, 0.1 nM, 1 nM, 10 nM, and 100 nM • d) For dimer structure numbers 15 to 43, 0.1 nM, 1 nM, and 10 nM • e) For dimer strength numbers 44 to 56, six points starting at 30 nM and then reducing by a common ratio of 1/4 (0.03 nM, 0.12 nM, 0.47 nM, 1.9 nM, 7.5 nM and 30 nM) • f) For dimer strength numbers 57 to 67, six points starting at 30 nM and then reducing by a common ratio of 1/5 (0.0096, 0.048, 0.24, 1.2, 6.0, and 30 nM)

df-S-D-I-R-Y-MeF-V-T-MeF-I-MeV-ds-C-G ([dF]SDIRY[NMeF]VT[NMeF]I[NMeV][dS]CG) [Peptide sequence number 66]
ELISA signal Frizzled-2 (FZD2) (Frizzled-2 (FZD2)): 1.5
ELISA signal Frizzled-7 (FZD7) (Frizzled-7 (FZD7)): 1.4
ELISA signal Frizzled-8 (FZD8) (Frizzled-8 (FZD8)): 0.7
TCF/LEF Reporter Assay Result [1]: 2-C (peptide complexes that exhibited 50% or more activity when 10 nM of the peptide complex was added)

Dimer structure number 46: dimer of peptide SEQ ID NO: 35 and peptide SEQ ID NO: 79 via linker structure number 8 (chain 1 [dF]S[Ala(4-THP)]IRY[NMeF]VT[NMeF]I[NMeV]GCG; chain 2 FRWDVR[NMeF]SNWN[Tic]NCG; cysteine pairing not given here; also: dimer via linker structure number 8, attachment not given here)
ELISA signal Frizzled-2 (FZD2) (Frizzled-2 (FZD2)): 0.3
ELISA signal Frizzled-7 (FZD7) (Frizzled-7 (FZD7)): 0.3
ELISA signal Frizzled-8 (FZD8) (Frizzled-8 (FZD8)): 0.0
TCF/LEF Reporter Assay Result [1]: 2-C (peptide complexes that exhibited 50% or more activity when 10 nM of the peptide complex was added)

Dimer structure number 66: dimer of peptide SEQ ID NO: 76 and peptide SEQ ID NO: 163 via linker structure number 3 (chain 1 [dF]S[Cit]IRY[NMeF]VT[NMe4Pal]I[NMeV][dS]CG; chain 2 FR[Trp(7-aza)]DVR[X1]SE[Trp(7-aza)]N[Tic]DCG; not fully specified; cysteine pairing not given here; also: dimer via linker structure number 3, attachment not given here)
ELISA signal Frizzled-2 (FZD2) (Frizzled-2 (FZD2)): 1.7
ELISA signal Frizzled-7 (FZD7) (Frizzled-7 (FZD7)): 1.7
ELISA signal Frizzled-8 (FZD8) (Frizzled-8 (FZD8)): 1.5
TCF/LEF Reporter Assay Result [1]: 2-B (peptide complexes that exhibited 50% or more activity when 1 nM of the peptide complex was added)

Peptide sequence number 99: peptide of formula B3, amino acid residues shown in Table 2 (FRWDVR[NMeF]SN[Trp(7-aza)]N[Tic]NCG)
ELISA signal Frizzled-2 (FZD2) (Frizzled-2 (FZD2)): 0.0
ELISA signal Frizzled-7 (FZD7) (Frizzled-7 (FZD7)): 0.0
ELISA signal Frizzled-8 (FZD8) (Frizzled-8 (FZD8)): 0.4
TCF/LEF Reporter Assay Result [1]: 2-C (peptide complexes that exhibited 50% or more activity when 10 nM of the peptide complex was added)
